# Measured values from publication PMC6137059.
# Biological target: TcpK (Clostridium perfringens (plasmid pCW3)) (UniProt Q1PLI2)
# Assay: SPR
# Details: SPR: 10 mM HEPES pH 7.4, 200 mM NaCl, 3 mM EDTA, 0.05% Tween 20, 20 C
Sequence,Kd,binding signal
AAGGAACTTTACAGGGAACTTTA (double strand) [oriTmin23 (SPR)],360 nM,
AAGGAACTTTACAGGGAACTTTA (double strand) [R2L9],,100 % Rmax
AAGGAACTTTACAGGGAACTTTAAAAATTT (double strand) [oriT#1 (SPR)],521 nM,
ACAGGGAACTTTAAAAATTTAAATTGATAT (double strand) [oriT#2 (SPR)],2580 nM,
AAGGAACTTTACAGGGAACTT (double strand) [R2L10],,55 % Rmax
AAGGAACTTTACAAGGAACTTTA (double strand) [linker CAA],,25 % Rmax
AAGGAACTTTACAGGGAACTTTAAAAATTTAAATTGATA (double strand) [R2L1],,100 % Rmax
